For one assay, the target named is HLA-B*39:01. In words: IEDB peptide-MHC binding, purified MHC/competitive/fluorescence; filed as Kd, often an IC50 or EC50 that approximates it; ≥ and ≤ were set here for values at or beyond the usual limits of such assays.
For a further assay, the target named is HLA-A*69:01. The assay is described as above.
In a further assay the target is HLA-B*27:03. Described as above.
Another assay has as its target HLA-B*15:17. The description is as above.
Assay [1] has as its target HLA-B*15:01. The assay is described as above.
Another assay concerns the target HLA-B*18:01. Described as above.
In another assay the target is HLA-B*46:01. Described as above.
Another assay deals with HLA-B*57:01. The assay is described as above.
The target of assay [2] is HLA-A*02:01. Described as above.
Another assay deals with HLA-A*26:01. Described as above.
A further assay has as its target HLA-B*51:01. The assay is described as above.
The next assay concerns the target HLA-A*24:03. Briefly: IEDB peptide-MHC binding, purified MHC/direct/fluorescence; filed as Kd, often an IC50 or EC50 that approximates it; ≥ and ≤ were set here for values at or beyond the usual limits of such assays.
A further assay deals with HLA-A*02:12. Described as above.
The next assay concerns the target HLA-A*03:01. The assay is described as above.
The target of the next assay is HLA-A*68:02. Described as above.
The target in another assay is HLA-B*27:05. Described as above. Particulars: source organism: Reston ebolavirus - Reston.
A further assay has as its target HLA-A*02:11. The assay is described as above.
The target of another assay is HLA-A*02:03. Described as above.
A further assay has as its target HLA-A*02:19. The assay is described as above.
The next assay has as its target HLA-A*23:01. Described as above.
For a further assay, the target named is HLA-A*02:16. Described as above.
A further assay concerns the target HLA-A*29:02. Described as above.
In assay [3] the target is HLA-B*07:02. The assay is described as above. The note with it: source organism: Zaire ebolavirus.
The target of the next assay is HLA-B*08:01. Briefly: IEDB peptide-MHC binding, purified MHC/competitive/fluorescence; ≥ and ≤ were set here for values at or beyond the usual limits of such assays. Particulars: source organism: Zaire ebolavirus.
Assay [4] concerns the target HLA-B*15:01. Described as above. The note with it: source organism: Zaire ebolavirus.
Assay [5] addresses HLA-B*07:02. The description is as above. Particulars: source organism: Zaire ebolavirus.
A further assay deals with HLA-A*24:02. Described as above. The note with it: source organism: Zaire ebolavirus.
Assay [6] concerns the target HLA-A*02:01. The description is as above. Particulars: source organism: Zaire ebolavirus.
Another assay deals with HLA-B*40:01. In words: IEDB peptide-MHC binding, purified MHC/direct/fluorescence; filed as Kd, often an IC50 or EC50 that approximates it; ≥ and ≤ were set here for values at or beyond the usual limits of such assays. Particulars: source organism: Ebola virus - Eckron (Zaire, 1976).
Setting [7] is: source organism: Reston ebolavirus.
Where [8] appears, read: source organism: Zaire ebolavirus.

The term Kd denotes the constant that tells how readily two partners part at equilibrium. Lower therefore signals a tighter complex. Usually IC50 stands for the concentration at which inhibition is half-maximal. A high value points to weaker potency in that assay.

In the case of RRELSKEKL, the Kd with HLA-B*39:01 (setting [7]), in the assay with HLA-A*69:01 (setting [7]), in the assay with HLA-B*27:03 (setting [7]), in the assay with HLA-B*15:17 (setting [7]), with HLA-B*15:01 [1] (setting [7]) and in the assay with HLA-B*18:01 (setting [7]) was ≥ 20 µM in each case. Further, the Kd with HLA-B*46:01 (setting [7]), with HLA-B*57:01 (setting [7]), with HLA-A*02:01 [2] (setting [7]), with HLA-A*26:01 (setting [7]), with HLA-B*51:01 (setting [7]) and in the assay with HLA-A*24:03 (setting [7]) was ≥ 20 µM throughout. In addition, the Kd with HLA-A*02:12 (setting [7]), with HLA-A*03:01 (setting [7]), with HLA-A*68:02 (setting [7]), with HLA-B*27:05, with HLA-A*02:11 (setting [7]) and in the assay with HLA-A*02:03 (setting [7]) was ≥ 20 µM each time. Besides, the Kd in the assay with HLA-A*02:19 (setting [7]), with HLA-A*23:01 (setting [7]), with HLA-A*02:16 (setting [7]) and with HLA-A*29:02 (setting [7]) was ≥ 20 µM each time.

As to RDRFKRTSF, the Kd with HLA-B*39:01 (setting [8]), with HLA-A*69:01 (setting [8]), with HLA-B*27:03 (setting [8]), in the assay with HLA-B*15:17 (setting [8]), with HLA-B*15:01 [1] (setting [8]) and in the assay with HLA-B*18:01 (setting [8]) was ≥ 20 µM throughout. The Kd with HLA-B*46:01 (setting [8]), with HLA-B*57:01 (setting [8]), with HLA-A*02:01 [2] (setting [8]), with HLA-A*26:01 (setting [8]), with HLA-B*51:01 (setting [8]) and with HLA-A*24:03 (setting [8]) was ≥ 20 µM throughout. Also, the Kd with HLA-A*02:12 (setting [8]), in the assay with HLA-A*03:01 (setting [8]), in the assay with HLA-A*68:02 (setting [8]), in the assay with HLA-A*02:11 (setting [8]), with HLA-A*02:03 (setting [8]) and with HLA-A*02:19 (setting [8]) was ≥ 20 µM throughout. The Kd in the assay with HLA-B*07:02 [3], with HLA-A*23:01 (setting [8]) and with HLA-A*02:16 (setting [8]) was ≥ 20 µM in each case. The IC50 was ≥ 114 µM with HLA-B*08:01, 36.4 µM with HLA-B*15:01 [4], ≥ 74.2 µM with HLA-B*07:02 [5] and 18.9 µM with HLA-A*24:02.

As to HPLARTAKV, the Kd with HLA-B*39:01 (setting [8]), with HLA-B*27:03 (setting [8]), with HLA-B*15:17 (setting [8]), with HLA-B*15:01 [1] (setting [8]), in the assay with HLA-B*18:01 (setting [8]) and with HLA-B*46:01 (setting [8]) was ≥ 20 µM each time. The Kd in the assay with HLA-B*57:01 (setting [8]) was ≥ 20 µM; with HLA-A*02:01 [2] (setting [8]), ≥ 20 µM; with HLA-A*26:01 (setting [8]), ≥ 20 µM; with HLA-B*51:01 (setting [8]) it was 0.201 µM; with HLA-A*24:03 (setting [8]) it was ≥ 20 µM; in the assay with HLA-A*02:12 (setting [8]) it was ≥ 20 µM. The Kd is ≥ 20 µM with HLA-A*03:01 (setting [8]); ≥ 20 µM with HLA-A*68:02 (setting [8]); ≥ 20 µM with HLA-A*02:11 (setting [8]); ≥ 20 µM with HLA-A*02:03 (setting [8]); ≥ 20 µM with HLA-A*02:19 (setting [8]); 0.0459 µM with HLA-B*07:02 [3]. Also, the Kd with HLA-A*23:01 (setting [8]), with HLA-A*02:16 (setting [8]) and in the assay with HLA-A*29:02 (setting [8]) was ≥ 20 µM throughout. Moreover, the figures for the IC50 with HLA-B*08:01, with HLA-B*07:02 [5] and with HLA-A*02:01 [6] were 54.5 µM, 3.11 µM and ≥ 113 µM, respectively.

With KEGKLQCRI, the Kd with HLA-B*39:01 (setting [8]), in the assay with HLA-A*69:01 (setting [8]), with HLA-B*27:03 (setting [8]), with HLA-B*15:17 (setting [8]), in the assay with HLA-B*15:01 [1] (setting [8]) and in the assay with HLA-B*18:01 (setting [8]) was ≥ 20 µM in each case. Moreover, the Kd in the assay with HLA-B*46:01 (setting [8]), with HLA-B*57:01 (setting [8]), with HLA-A*02:01 [2] (setting [8]), in the assay with HLA-A*26:01 (setting [8]), with HLA-B*51:01 (setting [8]) and in the assay with HLA-A*24:03 (setting [8]) was ≥ 20 µM throughout. Besides, the Kd with HLA-A*02:12 (setting [8]), with HLA-A*03:01 (setting [8]), with HLA-A*68:02 (setting [8]), with HLA-A*02:11 (setting [8]), in the assay with HLA-A*02:03 (setting [8]) and with HLA-A*02:19 (setting [8]) was ≥ 20 µM throughout. For the same sequence, the Kd with HLA-A*23:01 (setting [8]), in the assay with HLA-B*40:01, with HLA-A*02:16 (setting [8]) and with HLA-A*29:02 (setting [8]) was ≥ 20 µM in each case.
